According to patent US20230133281A1 (CHROMOXYION, published 2023):

Molecular target: T1, Antigen SdW1a (free peptide) (Homo sapiens)
T1 construct: Synthetic peptide derived from DBY/DEAD; A KLH-conjugated form (SdW1b) was also used in screening; also called the antigen; 22-mer peptide
T1 peptide: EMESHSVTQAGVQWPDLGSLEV
Test: supernatant ELISA on the antigen, hybridoma supernatant
Protocol: Screening: Hybridoma cells were grown for 10 days at which point the number of positive hybridoma colonies was determined and after a further 3 days' incubation an aliquot of antibody supernatant was taken for screening. The supernatant was assayed for reactivity to the antigens SdW1a (free peptide—SEQ ID NO. 347) and SdW1b (KLH-peptide), firstly by antigen microarray using an IgG-specific secondary antibody, followed by supernatant ELISA to confirm any positive antibody-producing clones.

binding result: binds
B1: monoclonal antibody SdW1 RE5.B7.F9b (antibody, mouse IgG2a, V domains shown)
VH: EVKVEESGGGLVQPGGSMKISCVASGFTFKNYWMNWVRQSPEKGLEWVAEIRSKSNNNEKHYAESVKGRFTISRDDFKSSVYLQMNNLRTEDTGIYYCTGGTFDYWGQGTTLTVSS
VL: DVVVTQTPLSLPVSLGDQASISCRSSHSLVHSDGNTYLHWYLQKPGQSPKLLIYKVSNRFSGVPDRFSGSGSGTDFTLKISRVEAEDLGVYFCSQTTHVPPYTFGGGTQLEIK
notes: Tested as hybridoma culture supernatant; also called clone RE5; RE5 antibody
